According to patent US7572434B2, “Method for assessing the effect of a drug on long term memory formation” (Cold Spring Harbor Laboratory, priority 1994, dated 2009):
Numbering of substitutions follows the chain as printed.

B1: dCREB2-b: Drosophila dCREB2 isoform lacking exons 2 and 6, antagonist of dCREB2-a, expressed from RSV-dCREB2-b (protein)
chain: MDNSIVEENGNSSAASGSNDVVDVVAQQAAAAVGGGGGGGGGGGGGNPQQQQQNPQSTTAGGPTGATNNAQGGGVSSVLTTTANCNIQYPIQTLAQHGLQVQSVIQANPSGVIQTAAGTQQQQQALAAATAMQKVVYVAKPPNSTVIHTTPGNAVQIPPTFPCKIKPEPNTQHPEDSDESLSDDDSQHHRSELTRRPSYNKIFTEISGPDMSDNSGIAEDQTRKREIRLQKNREAARECRRKKKEYIKCLENRVAVLENQNKALIEELKSLKELYCQTKND
B2: mLZ-dCREB2-b: leucine-zipper mutant of dCREB2-b; middle two leucines converted to valines (protein)
chain: B1 chain with L257V, L264V

Columns and labels:
dCREB2-a = molecular target: T1, dCREB2-a (UniProt Q9VWW0); experiment: cell_activity; settings: F9 cells; dCREB2-a plus PKA relative to PKA alone
T1 sequence: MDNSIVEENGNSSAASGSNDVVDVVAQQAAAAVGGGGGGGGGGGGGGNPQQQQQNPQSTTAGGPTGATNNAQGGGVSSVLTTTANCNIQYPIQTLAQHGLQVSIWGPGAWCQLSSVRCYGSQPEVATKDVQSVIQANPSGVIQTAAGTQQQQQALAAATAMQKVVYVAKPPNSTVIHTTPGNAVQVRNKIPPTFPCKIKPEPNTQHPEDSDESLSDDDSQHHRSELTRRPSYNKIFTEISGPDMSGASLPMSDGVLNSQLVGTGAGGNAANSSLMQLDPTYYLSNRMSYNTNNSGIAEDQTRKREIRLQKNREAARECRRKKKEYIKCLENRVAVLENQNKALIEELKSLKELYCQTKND

[1] = tested on: PKA-responsive transcription (CRE-directed reporter) in F9 cells; experiment: PKA-responsive transcription from the CRE-containing D(-71) CAT reporter in transiently transfected F9 cells; format: cell-based; settings: cotransfected with dCREB2-a, PKA and reporter
Procedure: Undifferentiated F9 cells were maintained and transfected using the calcium phosphate method as described in Darrow, A. L. et al., “Maintenance and Use of F9 Teratocarcinoma Cells”, In Meth. Enzymol., v. 190 (1990), except that chloroquine was added to […] immediately before transfection and precipitates were washed off ten hours after transfection, at which time the dishes received fresh chloroquine-free medium. Amounts of DNA in transfections were made equivalent by adding RSV-0 where required. Cells were harvested 30 hours after transfection. Extracts were made by three cycles of freeze/thawing, with brief vortexing between cycles. Particulate matter was cleared from extracts by ten minutes of centrifugation in the cold. β-galactosidase assays were performed as described in Miller, J. H., Experiments in Molecular Genetics, Cold Spring Harbor Laboratory, Cold Spring Harbor, N.Y., 1972. CAT assays were performed as described in Sheen, J. Y. and B. Seed, Gene, 67: 271-277 (1988) using aliquots of extract heat-treated at 65° C. for ten minutes and centrifuged for ten minutes to remove debris. Results reported are from three experiments run on different days with at least three dishes per condition within each experiment. Error bars represent standard error of the mean, with error propagation taken into account (Grossman, M. and H. W. Norton, J. Hered., 71: 295-297 (1980)).
F9 cells were transiently transfected with 10 μg of D(−71) CAT plasmid as a CRE-directed reporter. 5 μg of RSV-βgal reporter was included in each dish as a normalization control for transfection efficiency. Different groups received 8 μg of dCREB2-a expression vector and 4 μg of PKA expression vector, separately or in combination. Results are expressed as CAT/Pgal enzyme activity ratios, standardized to values obtained with PKA-transfected dishes. […]
Two different dCREB2 isoforms, dCREB2-a and dCREB2-b, have opposite roles in PKA-responsive transcription. […] CREB-dependent changes in gene expression were measured using a cotransfected construct that has a CRE-containing promoter fused to a reporter gene.

Molecule | activity (dCREB2-a) [fold] | effect on PKA-dependent activation by dCREB2-a [1]
D(-71) CAT rat somatostatin promoter CRE fragment | 5.4 | 
B1 |  | nearly complete block
B2 |  | failed to block
